Assay results from doi:10.1101/2023.09.10.557050 (bioRxiv, 2023).
Where two headings read alike, the source gives them in different places. Values belong to the binder of their own block, whether it stands above or below them.

Legend:
Assay in all cases: cryo-EM structure
[1] = target: the molecule itself
[2] = target: the molecule itself; remark: listed apart in the source
[3] = target: T1, EcNhaA WT-like triple mutant (A109T, Q277G, L296M) (E. coli), P13738; details: remark: other sources report otherwise
T1 chain: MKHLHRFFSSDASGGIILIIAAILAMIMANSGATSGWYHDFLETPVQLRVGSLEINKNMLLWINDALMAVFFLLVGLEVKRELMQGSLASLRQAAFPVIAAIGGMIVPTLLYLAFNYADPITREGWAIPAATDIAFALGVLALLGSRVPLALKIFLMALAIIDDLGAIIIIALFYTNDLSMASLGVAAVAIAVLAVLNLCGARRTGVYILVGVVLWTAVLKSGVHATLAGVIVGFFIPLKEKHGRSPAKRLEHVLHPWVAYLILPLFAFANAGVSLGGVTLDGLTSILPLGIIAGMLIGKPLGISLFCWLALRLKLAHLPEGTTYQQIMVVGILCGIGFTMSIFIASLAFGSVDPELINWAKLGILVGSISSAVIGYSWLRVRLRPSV

B1: horse NHE9* (residues 8 to 575), tag removed (domain or fragment, UniProt F7B113 8-575, looked up)
chain: MSEKDEYQFQHQGAVELLVFNFLLILTILTIWLFKNHRFRFLHETGGAMVYGLIMGLILRYATAPTDIESGTVYDCGKLAFSPSTLLINITDQVYEYKYKREISQHNINPHLGNAILEKMTFDPEIFFNVLLPPIIFHAGYSLKKRHFFQNLGSILTYAFLGTAISCIVIGLIMYGFVKAMVYAGQLKNGDFHFTDCLFFGSLMSATDPVTVLAIFHELHVDPDLYTLLFGESVLNDAVAIVLTYSISIYSPKENPNAFDAAAFFQSVGNFLGIFAGSFAMGSAYAVVTALLTKFTKLCEFPMLETGLFFLLSWSAFLSAEAAGLTGIVAVLFCGVTQAHYTYNNLSLDSKMRTKQLFEFMNFLAENVIFCYMGLALFTFQNHIFNALFILGAFLAIFVARACNIYPLSFLLNLGRKHKIPWNFQHMMMFSGLRGAIAFALAIRDTESQPKQMMFSTTLLLVFFTVWVFGGGTTPMLTWLQIRVGVDLDEDLKERPSSHQEANNLEKSTTKTESAWLFRMWYGFDHKYLKPILTHSGPPLTTTLPEWCGPISRLLTSPQAYGEQLKED
stoichiometry N [1]: 2

B2: horse NHE9*CC (L139C-I444C double mutant), tag removed (domain or fragment, UniProt F7B113 8-575, looked up)
chain: MSEKDEYQFQHQGAVELLVFNFLLILTILTIWLFKNHRFRFLHETGGAMVYGLIMGLILRYATAPTDIESGTVYDCGKLAFSPSTLLINITDQVYEYKYKREISQHNINPHLGNAILEKMTFDPEIFFNVLCPPIIFHAGYSLKKRHFFQNLGSILTYAFLGTAISCIVIGLIMYGFVKAMVYAGQLKNGDFHFTDCLFFGSLMSATDPVTVLAIFHELHVDPDLYTLLFGESVLNDAVAIVLTYSISIYSPKENPNAFDAAAFFQSVGNFLGIFAGSFAMGSAYAVVTALLTKFTKLCEFPMLETGLFFLLSWSAFLSAEAAGLTGIVAVLFCGVTQAHYTYNNLSLDSKMRTKQLFEFMNFLAENVIFCYMGLALFTFQNHIFNALFILGAFLAIFVARACNIYPLSFLLNLGRKHKIPWNFQHMMMFSGLRGACAFALAIRDTESQPKQMMFSTTLLLVFFTVWVFGGGTTPMLTWLQIRVGVDLDEDLKERPSSHQEANNLEKSTTKTESAWLFRMWYGFDHKYLKPILTHSGPPLTTTLPEWCGPISRLLTSPQAYGEQLKED
stoichiometry N [2]: 2

stoichiometry N [3]: 2
B3: EcNhaA WT-like triple mutant (A109T, Q277G, L296M), P13738 1-388 (natural protein)
chain: MKHLHRFFSSDASGGIILIIAAILAMIMANSGATSGWYHDFLETPVQLRVGSLEINKNMLLWINDALMAVFFLLVGLEVKRELMQGSLASLRQAAFPVIAAIGGMIVPTLLYLAFNYADPITREGWAIPAATDIAFALGVLALLGSRVPLALKIFLMALAIIDDLGAIIIIALFYTNDLSMASLGVAAVAIAVLAVLNLCGARRTGVYILVGVVLWTAVLKSGVHATLAGVIVGFFIPLKEKHGRSPAKRLEHVLHPWVAYLILPLFAFANAGVSLGGVTLDGLTSILPLGIIAGMLIGKPLGISLFCWLALRLKLAHLPEGTTYQQIMVVGILCGIGFTMSIFIASLAFGSVDPELINWAKLGILVGSISSAVIGYSWLRVRLRPSV
